T1: soluble mouse IL-11 receptor (mouse, UniProt Q64385 24-372)
T1 construct: interleukin-11 receptor, mouse (mIL-11R), soluble; also called mIL-11R; source: bought: Sino Biological, 50,075-M08H-100
T1 sequence (looked up): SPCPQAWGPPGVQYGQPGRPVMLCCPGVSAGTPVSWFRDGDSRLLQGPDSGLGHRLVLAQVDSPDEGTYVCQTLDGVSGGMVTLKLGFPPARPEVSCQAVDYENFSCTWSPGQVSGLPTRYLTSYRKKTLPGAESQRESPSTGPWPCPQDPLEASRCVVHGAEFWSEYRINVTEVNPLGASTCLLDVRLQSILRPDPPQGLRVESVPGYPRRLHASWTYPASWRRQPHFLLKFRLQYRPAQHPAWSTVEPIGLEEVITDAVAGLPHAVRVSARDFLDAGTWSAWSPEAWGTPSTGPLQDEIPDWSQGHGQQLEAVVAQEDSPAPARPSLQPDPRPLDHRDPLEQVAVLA

T2: biotinylated IL-11R-Fc (human, UniProt Q14626 24-370, biotin)
T2 construct: interleukin-11 receptor (IL-11R), human, Fc fusion; source: bought: Acro, ILR-H82F5
T2 sequence (looked up): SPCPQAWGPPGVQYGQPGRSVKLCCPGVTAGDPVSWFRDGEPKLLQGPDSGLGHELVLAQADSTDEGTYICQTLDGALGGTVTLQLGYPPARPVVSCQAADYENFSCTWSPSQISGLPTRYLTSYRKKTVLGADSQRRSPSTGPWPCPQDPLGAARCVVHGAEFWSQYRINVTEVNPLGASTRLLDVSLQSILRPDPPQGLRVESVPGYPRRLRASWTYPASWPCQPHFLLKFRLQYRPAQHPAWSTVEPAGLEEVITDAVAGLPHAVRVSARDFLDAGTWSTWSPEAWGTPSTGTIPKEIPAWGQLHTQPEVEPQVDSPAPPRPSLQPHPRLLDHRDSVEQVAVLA

T3: mIL-11R-mFc (mouse, UniProt Q64385 24-372)
T3 construct: interleukin-11 receptor, mouse (mIL-11R), mouse Fc fusion; also called mouse IL-11R; source: bought: R&D Systems, 7405-MR
T3 sequence (looked up): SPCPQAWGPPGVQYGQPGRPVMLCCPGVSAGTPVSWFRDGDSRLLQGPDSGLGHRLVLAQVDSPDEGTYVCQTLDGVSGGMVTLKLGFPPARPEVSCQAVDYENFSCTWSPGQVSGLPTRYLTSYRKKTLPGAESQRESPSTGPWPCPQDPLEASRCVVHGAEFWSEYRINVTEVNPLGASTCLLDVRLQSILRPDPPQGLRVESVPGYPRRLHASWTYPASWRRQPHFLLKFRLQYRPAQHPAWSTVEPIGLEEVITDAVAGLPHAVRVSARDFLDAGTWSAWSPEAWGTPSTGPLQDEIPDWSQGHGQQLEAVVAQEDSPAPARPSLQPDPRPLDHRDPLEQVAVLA


Legend:
[1] = target: T1, soluble mouse IL-11 receptor; assay: flow cytometry on cells; yeast-displayed IL-11 variants incubated with varying concentrations of soluble IL-11R or mIL-11R overnight at room temperature, washed with BPBS; receptor detected with anti-his AF647, display with anti-c-myc; apparent Kd from the fraction bound of the expressing population; conditions: one partner purified
biotinylated IL-11R-Fc = target: T2, biotinylated IL-11R-Fc; assay: BLI; biotinylated IL-11R-Fc loaded on streptavidin biosensors at 1.25 ug/mL in kinetics buffer; three-fold serial dilutions of WT IL-11 or enIL-11; apparent Kd; binding to enIL-11 performed by Antibody Solutions; conditions: both partners purified
mIL-11R-mFc = target: T3, mIL-11R-mFc; assay: BLI; mIL-11R-mFc loaded on antimouse Fc biosensors at 1.25 ug/mL in kinetics buffer; three-fold serial dilutions of WT IL-11 or enIL-11; apparent Kd; binding to enIL-11 performed by Antibody Solutions; conditions: both partners purified

| Kd [1] [nM] | Kd (biotinylated IL-11R-Fc) [nM] | Kd (mIL-11R-mFc) [nM] | Binder |
| --- | --- | --- | --- |
| 2.2 ± 0.3 | – | – | yeast-displayed wild-type human IL-11 (ligand, UniProt P20809 22-199, looked up, interleukin-11 (IL-11), human, residues Pro22 to Leu199 of the precursor; also called IL-11 WT; WT IL-11; not shown: c-myc, C-terminal, kept) PGPPPGPPRVSPDPRAELDSTVLLTRSLLADTRQLAAQLRDKFPADGDHNLDSLPTLAMSAGALGALQLPGVLTRLRADLLSYLRHVQWLRRAGGSSLKTLEPELGTLQARLDRLLRRLQLLMSRLALPQPPPDPPAPPLAPPSSAWGGIRAAHAILGGLHLTLDWAVRGLLLLKTRL |
| – | 9.5 ± 0.3 | 11 ± 0.3 | soluble recombinant wild-type human IL-11 (ligand, interleukin-11 (IL-11), human; also called WT IL-11; IL-11 WT; source: E. coli BL21, purified (cobalt beads), cleaved with TEV protease; not shown: His6, N-terminal, cleaved; thioredoxin, N-terminal, cleaved) SPDPRAELDSTVLLTRSLLADTRQLAAQLRDKFPADGDHNLDSLPTLAMSAGALGALQLPGVLTRLRADLLSYLRHVQWLRRAGGSSLKTLEPELGTLQARLDRLLRRLQLLMSRLALPQPPPDPPAPPLAPPSSAWGGIRAAHAILGGLHLTLDWAVRGLLLLKTRL |
| – | 0.41 ± 0.01 | 0.16 ± 0.01 | enIL-11 (engineered human IL-11, GIPR RA S60T), soluble (designed binder, interleukin-11 (IL-11), human; source: E. coli BL21, purified (cobalt beads), cleaved with TEV protease; not shown: His6, N-terminal, cleaved; thioredoxin, N-terminal, cleaved) SPDPRAELGSIVLRTRSLLADTRQLAAQLRDKFPADGDHNLDSLPTPAMTARALGALQLPGVLTRLRADLLSYLRHVQWLRRAGGSSLKTLEPELGTLQARLDRLLRRLQLLMSRLALPQPPPDPPAPPLAPPSSAAGGIRAAHAILGGLHLTLDWAVRGLLLLKTRL |
| 3.1 ± 0.8 | – | – | yeast-displayed mouse IL-11 wild-type (ligand, UniProt P47873 22-199, looked up, interleukin-11, mouse; also called mIL-11; mIL-11 WT; not shown: c-myc, C-terminal, kept) PGPPAGSPRVSSDPRADLDSAVLLTRSLLADTRQLAAQMRDKFPADGDHSLDSLPTLAMSAGTLGSLQLPGVLTRLRVDLMSYLRHVQWLRRAGGPSLKTLEPELGALQARLERLLRRLQLLMSRLALPQAAPDQPVIPLGPPASAWGSIRAAHAILGGLHLTLDWAVRGLLLLKTRL |
